From paper PMC9083366, “Brassinosteroid-Insensitive 1-Associated Receptor Kinase 1 Modulates Abscisic Acid Signaling by Inducing PYR1 Monomerization and Association With ABI1 in Arabidopsis” (Frontiers in Plant Science, 2022)

Molecular target: T1, GST-ABI1 (Arabidopsis thaliana, UniProt P49597 1-434)
T1 construct: ABI1 (ABA-Insensitive 1), clade A protein phosphatase 2C, Arabidopsis thaliana; also called ABA-Insensitive 1; not shown: GST, N-terminal, kept
T1 sequence (looked up): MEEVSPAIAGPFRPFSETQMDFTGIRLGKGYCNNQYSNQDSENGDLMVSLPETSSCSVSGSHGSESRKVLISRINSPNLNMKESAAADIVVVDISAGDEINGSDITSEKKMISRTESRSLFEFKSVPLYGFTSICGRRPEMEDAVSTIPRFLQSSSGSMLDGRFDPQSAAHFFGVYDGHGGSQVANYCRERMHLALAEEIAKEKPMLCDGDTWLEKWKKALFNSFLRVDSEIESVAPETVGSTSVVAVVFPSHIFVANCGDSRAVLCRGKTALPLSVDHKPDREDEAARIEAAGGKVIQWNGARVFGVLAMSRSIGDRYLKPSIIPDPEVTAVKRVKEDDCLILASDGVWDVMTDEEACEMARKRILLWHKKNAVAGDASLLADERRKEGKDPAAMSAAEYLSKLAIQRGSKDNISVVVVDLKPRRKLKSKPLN
Test: pull-down; GST-ABI1 incubated with HIS-PYR1 variants in the absence or presence of 30 uM ABA; western blot with anti-GST and anti-HIS
Settings: both partners purified

B1: HIS-tagged PYR1 recombinant protein (natural protein, Arabidopsis thaliana, UniProt O49686 1-191, looked up)
chain: MPSELTPEERSELKNSIAEFHTYQLDPGSCSSLHAQRIHAPPELVWSIVRRFDKPQTYKHFIKSCSVEQNFEMRVGCTRDVIVISGLPANTSTERLDILDDERRVTGFSIIGGEHRLTNYKSVTTVHRFEKENRIWTVVLESYVVDMPEGNSEDDTRMFADTVVKLNLQKLATVAEAMARNSGDGSGSQVT
notes: PYR1 (PYRABACTIN …1), Arabidopsis thaliana, 191 amino acids; also called HIS-PYR1; PYRABACTIN …1; not shown: His, N-terminal, kept
  binding result: binds

B2: HIS-PYR1DD (phosphomimetic PYR1) (natural protein, Arabidopsis thaliana, UniProt O49686 1-191, looked up)
chain: MPSELTPEERSELKNSIAEFHTYQLDPGSCSSLHAQRIHAPPELVWSIVRRFDKPQTYKHFIKSCSVEQNFEMRVGCTRDVIVISGLPANTSTERLDILDDERRVTGFSIIGGEHRLTNYKSVTTVHRFEKENRIWDVVLEDYVVDMPEGNSEDDTRMFADTVVKLNLQKLATVAEAMARNSGDGSGSQVT
notes: PYR1, Arabidopsis thaliana, 191 amino acids, T137 and S142 mutagenized to aspartic acid; not shown: His, N-terminal, kept
  binding result: binds
